Publication PMC3274598 (Analytical Biochemistry, 2011)

T1: RAD9 peptide (Homo sapiens, UniProt Q99638)
T1 chain: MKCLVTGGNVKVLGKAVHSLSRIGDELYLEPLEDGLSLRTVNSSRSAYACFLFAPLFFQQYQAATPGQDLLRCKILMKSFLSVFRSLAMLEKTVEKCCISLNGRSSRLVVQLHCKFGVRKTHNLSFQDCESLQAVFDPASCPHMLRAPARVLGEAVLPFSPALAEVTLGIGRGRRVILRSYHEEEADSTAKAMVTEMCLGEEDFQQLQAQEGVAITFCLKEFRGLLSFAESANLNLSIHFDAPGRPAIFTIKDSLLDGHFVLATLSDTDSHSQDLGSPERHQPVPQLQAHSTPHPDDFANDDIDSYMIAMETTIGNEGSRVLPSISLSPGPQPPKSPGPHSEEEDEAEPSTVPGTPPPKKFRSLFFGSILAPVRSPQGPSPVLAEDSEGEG

T2: ATRIP peptide (Homo sapiens, UniProt Q8WXE1)
T2 chain: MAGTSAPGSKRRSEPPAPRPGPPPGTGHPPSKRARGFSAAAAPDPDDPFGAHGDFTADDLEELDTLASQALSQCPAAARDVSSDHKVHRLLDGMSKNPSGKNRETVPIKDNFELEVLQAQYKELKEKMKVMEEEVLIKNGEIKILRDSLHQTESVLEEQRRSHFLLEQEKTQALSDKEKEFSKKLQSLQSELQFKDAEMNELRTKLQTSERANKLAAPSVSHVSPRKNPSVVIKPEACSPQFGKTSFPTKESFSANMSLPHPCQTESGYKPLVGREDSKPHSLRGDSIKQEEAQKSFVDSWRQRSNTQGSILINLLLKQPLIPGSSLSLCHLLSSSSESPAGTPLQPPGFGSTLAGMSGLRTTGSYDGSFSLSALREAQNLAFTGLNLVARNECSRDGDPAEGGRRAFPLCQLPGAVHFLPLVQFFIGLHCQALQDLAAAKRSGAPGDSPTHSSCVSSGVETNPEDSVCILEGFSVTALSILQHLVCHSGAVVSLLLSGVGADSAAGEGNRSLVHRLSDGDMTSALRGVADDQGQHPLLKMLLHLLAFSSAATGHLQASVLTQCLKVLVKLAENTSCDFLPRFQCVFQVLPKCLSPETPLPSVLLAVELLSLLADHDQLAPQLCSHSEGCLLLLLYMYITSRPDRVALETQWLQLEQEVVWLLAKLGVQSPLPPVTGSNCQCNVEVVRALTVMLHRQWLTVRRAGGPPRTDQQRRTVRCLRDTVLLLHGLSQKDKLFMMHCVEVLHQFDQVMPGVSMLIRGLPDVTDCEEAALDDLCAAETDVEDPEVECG

B1: RPA70N 70N (protein)
chain: MVGQLSEGAIAAIMQKGDTNIKPILQVINIRPITTGNSPPRYRLLMSDGLNTLSSFMLATQLNPLVEEEQLSSNCVCQIHRFIVNTLKDGRRVVILMELEVLKSAEAVGVKIGNPVPYNE

Columns and labels:
[1] = biological target: N-terminal OB-fold domain of RPA70 (RPA70N) (human, UniProt P27694 1-120); assay: fluorescence polarisation
RAD9 peptide = biological target: T1, RAD9 peptide; assay: anisotropy
ATRIP peptide = biological target: T2, ATRIP peptide; assay: NMR

Binder	IC50 [1] [µM]	Kd (RAD9 peptide) [µM]	Kd (ATRIP peptide) [µM]
Ac-DFANDDIDSYMIAME-NH2 [RAD9 peptide (Ac-DFANDDIDSYMIAME-NH2)]	102 ± 13.6		
B1		51	48
